Molecular target: T1, recombinant DMP1 (Mus musculus, UniProt Q8CE22)
T1 construct: made in house; host or cells: Sf9 insect cells, pAcYM1 baculovirus vector; used as crude lysate (~4 ng DMP1 per reaction)
T1 sequence (Q8CE22 1-761): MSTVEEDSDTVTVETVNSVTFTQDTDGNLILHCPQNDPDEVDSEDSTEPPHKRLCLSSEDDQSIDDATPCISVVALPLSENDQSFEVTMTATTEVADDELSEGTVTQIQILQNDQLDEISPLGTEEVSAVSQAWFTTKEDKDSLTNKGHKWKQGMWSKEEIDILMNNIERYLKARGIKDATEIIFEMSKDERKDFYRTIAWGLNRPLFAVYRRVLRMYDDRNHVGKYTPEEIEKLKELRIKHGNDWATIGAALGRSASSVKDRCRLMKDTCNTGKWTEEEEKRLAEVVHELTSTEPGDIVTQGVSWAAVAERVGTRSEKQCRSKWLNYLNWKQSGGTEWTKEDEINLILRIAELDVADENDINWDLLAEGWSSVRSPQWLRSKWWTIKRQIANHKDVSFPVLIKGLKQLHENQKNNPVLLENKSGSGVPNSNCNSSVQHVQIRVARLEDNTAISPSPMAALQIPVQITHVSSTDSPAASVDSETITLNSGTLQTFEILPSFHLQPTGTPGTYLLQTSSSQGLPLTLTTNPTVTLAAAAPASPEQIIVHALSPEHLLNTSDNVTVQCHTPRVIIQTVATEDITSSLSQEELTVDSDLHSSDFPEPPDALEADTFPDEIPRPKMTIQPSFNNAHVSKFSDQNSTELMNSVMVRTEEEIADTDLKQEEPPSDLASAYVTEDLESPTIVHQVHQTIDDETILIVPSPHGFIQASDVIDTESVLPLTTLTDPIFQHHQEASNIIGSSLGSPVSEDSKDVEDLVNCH
Test: EMSA competition, recombinant DMP1 and 281 base pair ARF promoter fragment
Type: binding
Conditions: 200-fold excess of unlabelled oligonucleotide
Experimental: Electrophoretic mobility shift assay (EMSA). Recombinant DMP1 protein was prepared in Sf9 cells [Hirai and Sherr, Mol. Cell. Biol. 16:6457-6467 (1996)]. Purified bacterial proteins representing the Ets1 DNA binding domain or full-length Ets1 [Inoue, et al., J. Biol. Chem. 273:29188-29194 (1998)] were used. EMSAs were performed [Inoue and Sherr, Mol. Cell. Biol. 18:1590-1600 (1998)] using either a 281-bp genomic fragment (−225 to +56) or double-stranded oligonucleotides containing the DMP1/Ets site obtained by annealing oligonucleotide 5′-[…]-3′ (sense strand SEQ ID NO:41); DMP1/Ets consensus sequence underlined) with a complementary antisense strand. For competition experiments, a 200-fold excess of unlabelled oligonucleotides was added to reaction mixtures before the probe. To verify the identity of the proteins in shifted complexes, reaction mixtures were incubated with control nonimmune rabbit serum (NRS), serum AF [Hirai and Sherr, Mol. Cell. Biol. 16:6457-6467 (1996)] and M-10 (both to DMP1 carboxylterminal epitopes), S-19 (DMP1 N-terminus), or C-20 (Ets1 C-terminus) before electrophoresis. M-10, S-19, and C-20 were from Santa Cruz Biotechnology.
The nucleotide sequence of the proximal promoter region of the murine ARF gene relative to the transcription initiation site as defined by S1 mapping analysis was determined (FIG. 13). […]

competition for DMP1 binding to the 281 base pair ARF promoter fragment: did not compete
Substance: M3: DMP1 deletion mutant (NcoI), amino acids 1-458 of SEQ ID NO:1

Source: US6673902B2, “Cyclin D binding factor, and uses thereof” (St. Jude Children's Research Hospital, priority 1996, dated 2004)
